Measured values taken from a protein production outcome set (Wang et al. 2014).

Assay: label from the status in PepcDB records

Row | Sequence | protein production
1 | MMSNGGDSSEIVRELEELKLKKAEIEHRISTLEAKLQDTAAVELYDAVSNGDSYLTAPELEHGLSPDQIYRYSRQLLLPSFAVEACGVGQLGIIDHDVVELNNMHRQIIHTEAFIGHPKVKSAAAACRSINSTIKVDEYVEALRTSNALEILSQYDIIVDATDNPPSRYMISDCCVLLGKPLVSGAALGMEGQLTVYNHNGGPCYRCLFPTPPPTSACQRCSDSGVLGVVPGVIGCLQALETIKLASLVGEPLSERMLLFDALSARMRIVKIRGRSSQCTVCGDNSSFNKQTFKDFDYEDFTQFPLFAGPLNLLPAESRISSKEFKEILQKKEQHVLLDVRPSHHYKIVSLPDSLNIPLANLETRLNELTSALKEKGNGHANTESCTNPSVFVVCRRGNDSQRAVQYLRESGFDSAKDIIGGLEAWAANVNPNFPTY | failed
2 | MMSPRIGLTLQKIVETAAEIADANGVQEVTLASLAQTLGVRSPSLYNHVKGLQDVRKNLGIYGIKKLHNRLEEAAEDKRMDEAIHALGEAYVAFVRKHPGLYEATFLRDEEVRKAGDGIVKLCLQVLQQYGLEGENALHATRGFRSICHGFASIEQQGGFGLPLDLDISLHVLLETFIKGLRE | not failed
3 | MMSSSRRSFMAAGLVVVLAVAALIFGAPGPVPLSAGSSMSDRGAADTAEAPPKSSWAGRQFRDMTLDEKIAQLFVVRIDGEFQNANTPSYRETVALVEEFGAGGLIFGPGTPMTQIAMANDLQAKAERPLLVAQDTEWGVGMRIDAATSFPPAMAIGATRDASHAYRVGYATAREARALGVHQLYAPVADVNNNPKNPIINVRSFGESPSLVGTMASAFTRGAQRGGTLATVKHFPGHGDTDVDSHINLPVLRFDRSRLDSLELPPFRQAFDAGVRSVMTGHLALPEIAADSVPATLSRPLTHGLLREELGFDGLVVTDALNMQAVTRTFGVGETAVRVLEAGADLVLMSTNPHAAHQAVRQAVTSGRIDTTEINDSVRRLLRVKQDLRLHETRRVSLDTTRHRVAQRSHEVLARTVARESLTLLANADSLLPLTPPEQHDALVVTLSDSEYPGTGDTFVDRLRAQPAIETLDTRRLDPRSDSTDVNDHLADAADYDVVVVPSFLRVQAWSGSIGLSDMHHDFLEDLAGTDTPVAFVAFGNPYAPTGLEPAPDAILAAYGSGEASQRAAAQALGGGAGTPGRLPVTIPGVAEKGEGRRLAPVAPREGPPESVGMDGAQLARLDTLLRSAMLDGAFPGAAVAVGRGPALARLDAYGYHTYDETKPVQTGTQYDLASLTKVVATTTAVMKLYEADSLELDAPVARYLPDFAQNGKEAVTVRQLLTHSSGLKPYLDPDERGPTRAALLDTLMAQPLTYTPGTRSTYSGLNAIALMRIVETISGRPFDAFCRTHIFEPLGMDQTGFYDTDVTRAWVAPTTDTAGTRRRGSVHDPMARDMDGVSGNAGLFSTAADLARFGYMLTHEGRIDGRQFLEPKTIETFTAQADVPGSTRALGWDTKSAEGYSSAGDEFSAASFGHTGYTGTSFWVDPAEDLFFVLLTNRVYPDDTADRITQVRPRAADIVHRAIDGPPRPLLPGPAPEQ | failed
4 | MMTDKLNLNVLDAAFYSLEQTVVQISDRNWFDMQPSIVQDTLIAGAIQKFEFVYELSLKMMKRQLQQDAINTDDIGAYGFKDILREALRFGLIGDMSKWVAYRDMRNITSHTYDQEKAMAVYAQIDDFLIESSFLLEQLRQRNQYD | not failed
5 | MMTHYSDNTLKVAHQGFEFFTQGLATGEWQKFLDMLTEDFTFWFPMGEFHGLNVGKERAKEFFTYVSESFHTGIQISSLDRVTSNETTVVFEFRDEGLFLGKPYKNRVAVSFDVRGDKICSYREYFGSDGKSN | not failed
6 | MMTSAAPKPVRENIARAKAYLRRDDLPRSMAAMATALRELKGTRLIGQARFETEVNIHEYVTELNRHQAVRRFFEAQGVLSTPFVTYAKGAETELAERLESIRAGFEKDVAAHAAQHAAKVAHRKEALLRSGQEKLDAGDAPRGRSFLKRAADEFGHEAGVLTDIGQRLQRAGLLFEAAEMFENAIAAFPKDGHAHAGVVAAYMGLQEYPKAEMAYTRALKQFGTHPKTLVNMARMYLAWRKRDEAWTHIQRALQLAPGDAEAKALLAEIEGRGSRR | failed
7 | MMVLRMKVEWYLDFVDLNYEPGRDELIVEYYFEPNGVSPEEAAGRIASESSIGTWTTLWKLPEMAKRSMAKVFYLEKHGEGYIAKIAYPLTLFEEGSLVQLFSAVAGNVFGMKALKNLRLLDFHPPYEYLRHFKGPQFGVQGIREFMGVKDRPLTATVPKPKMGWSVEEYAEIAYELWSGGIDLLKDDENFTSFPFNRFEERVRKLYRVRDRVEAETGETKEYLINITGPVNIMEKRAEMVANEGGQYVMIDIVVAGWSALQYMREVTEDLGLAIHAHRAMHAAFTRNPRHGITMLALAKAARMIGVDQIHTGTAVGKMAGNYEEIKRINDFLLSKWEHIRPVFPVASGGLHPGLMPELIRLFGKDLVIQAGGGVMGHPDGPRAGAKALRDAIDAAIEGVDLDEKAKSSPELKKSLREVGLSKAKVGVQH | not failed
8 | MMWEQFKKEKLRGYLEAKNQRKVDFDIVELLDLINSFDDFVTLSSCSGRIAVVDLEKPGDKASSLFLGKWHEGVEVSEVAEAALRSRKVAWLIQYPPIIHVACRNIGAAKLLMNAANTAGFRRSGVISLSNYVVEIASLERIELPVAEKGLMLVDDAYLSYVVRWANEKLLKGKEKLGRLQEALESLQRENAYCSD | not failed
9 | MMYTNDNRIVMTLDAGGTNFVFSAIQGGKEIADPVVLPACADCLDKCLGNLVEGFKAIQAGLPEAPVAISFAFPGPADYQAGIIGDLPNFPSFRGGVALGPFLEDIFGIPVFINNDGSLFAYGEALTGVLPEINRRLREAGSTKRYKNLLGVTLGTGFGAGVVIDGELLRGDNAAGGYVWCLRNKKYPEYIVEESVSIRAVMRVYAERSGDAGARTPKEIFEIAEGIRPGNREAAIAAFEELGEMAGDALASAITLIDGLIVIGGGLSGASKYILPVLLKEMNAQTGMMDGARFGRLQKEVYDLDEEKSFAGFARGEAVEVLVPGTNRKVGYDPCKRIGVTFSKQGANRSIAMGAYVFALNHLSK | not failed
10 | MNADEFVEAFNNAKDLTELELLAELGKSISDDLEGHEKGKVLGTLGNIYYALHRLKEAEEAYLEALNVYLKLSEEDEGFLPYVVGCLYNLGNLYQVSRKFAEAEKAYTDALKVLGDVRNDQRLAILTALGTMYAKLDMKEHAERCLVEAFEMAKVKGDARLLGTLLNNLAVVYQRGGRKREAAMLLKMALDALERVGEDLGIAAVLQNLLPYLDEDELRRVMERLESFGELPIDLKAKIAYFKARRAEEKGEDSAKHYMEAACLGFMAYRNFGFQSINFMHCLDKVIESDSELREDAVVLKKVILKYYYGSQKVEIDFDSRVGRMIKAVLEGDDIYEDGILEDTVRLIAEDLLKAGTKV | failed
11 | MNADGWLADTRSSYDTVAVSYADQLRGALAGTPYLRAALELFAGMIHTAGGGPVADVGCGPGHVTAHLHGLGVDAFGIDLSPAMIDVARRDHPDLRFEVGSMTDLNLADASVTALLAFWSLIHVPDDAIPAVFGHFRRVVRPGGPLLLGFHIGDESRLKTEGYGGHPMKVHVHHRQPVQVTAWLRDAGFTVEAQWLLGLDGHIPGAVLFAHRQSLEHHHHHH | failed
12 | MNAHRAQLISLARPVYFSLLASVAAGIINTVWVSRLGGPAVAAVAVATNTENVLLGVALVFASGTTVLVAHARGAQDPGAVRAAVRGGWALCAVVTPVVAGCGYLLREPLARLVLGGEGPALPLAVGYFAISLPGITVFYAQNLVDGILKGAGDTRTPMRLALLANGLILALDPLLIHRYGVRGAAVSTVLCRCAALGVGLLALRRNALLRGAAAVRPAEATGAALRRTLSTGLPMSADFTVRQGGALVLVAIVARLGVTAVAAYSIAYKVMYVATMAFYAVRQAASIHTAHTRGADRRASSRSAGAGSGGERRAIGRQAVVVSGTVGLLASALLCVLAPWVMRAFGAGPEVAHQGVLFLRCVGPYLLLMACFIALGGVFEGSGGAPVLLRVTLLGTAVQLPLAYALSGLGLPGICLALALAMVVQCAALLPGVRRQEDARDSLVRVA | failed
13 | MNAIVEPRRAQPTDSDAILNALPNPVLLVGPDGKIVDANMAAESFFEISTQLLRRQSLTDLVPFGSPLLALIEQVRVGHSPVNEYKVDLGTPRIGADRQVDLHVAPLNERPGHIVVMLQERTIADKMDRQLTHRSAARSVIALAAMLAHEIKNPLSGIRGAAQLLEQQASAEDRMLTRLICDEADRIVTLVDRMEVFGDDRPVARGPVNIHSVLDHVKRLAQSGFARNIKFIEDYDPSLPPVLANQDQLIQVFLNLVKNAAEAVVDLGSDGEIQLTTAFRPGVRLSVPGKKTRVSLPLEFCVRDNGPGVPEDLLPNLFDPFVTTKPSGSGLGLALVAKIVGDHGGIIECESQPRKTTFRVLMPMFNTAKALQSPNGEDAPASSDASQTAR | failed
